{
  "source": "patent US20140363428A1",
  "about": "(Chugai, published 2014)",
  "binders": {"B1": {"name": "Fv-4-F1321 (antibody)", "heavy": "QVQLQESGPGLVKPSETLSLTCAVSGHSISHDHAWSWVRQPPGEGLEWIGFISYSGITNYNPSLQGRVTISRDNSKNTLYLQMNSLRAEDTAVYYCARSLARTTAMDYWGEGTLVTVSSASTKGPSVFPLAPSSKSTSGGTAALGCLVKDYFPEPVTVSWNSGALTSGVHTFPAVLQSSGLYSLSSVVTVPSSSLGTQTYICNVNHKPSNTKVDKKVEPKSCDKTHTCPPCPAPELRGGPKVFLFPPKPKDTLYITRTPEVTCVVVDVSHEDPEVKFNWYVDGVEVHNAKTKPREEQYNSTYRVVSVLTVLHQDWLNGKEYKCKVSNKALPAPIEKTISKAKGQPREPQVYTLPPSRDELTKNQVSLTCLVKGFYPSDIAVEWESNGQPENNYKTTPPVLDSDGSFFLYSKLTVDKSRWQQGNVFSCSVMHEALHYHVTKKELSLSP", "light": "DIQMTQSPSSLSASVGDSVTITCQASTDISSHLNWYQQKPGKAPELLIYYGSHLLSGVPSRFSGSGSGTDFTFTISSLEAEDAATYYCGQGNRLPYTFGQGTKVEIERTVAAPSVFIFPPSDEQLKSGTASVVCLLNNFYPREAKVQWKVDNALQSGNSQESVTEQDSKDSTYSLSSTLTLSKADYEKHKVYACEVTHQGLSSPVTKSFNRGEC"}, "B2": {"name": "Fv-4-F939 (antibody, human IgG1, kappa)", "heavy": "B1 heavy with T256S, K440Q, E442S", "light": "B1 light"}, "B3": {"name": "Fv-4-F1245 (antibody)", "heavy": "B1 heavy with T258E, K440R", "light": "B1 light", "notes": "L235R/S239K/M252Y/S254T/T256E/N434Y/Y436V/Q438R/S440E (EU)"}, "B4": {"name": "Fv-4-F1243 (antibody)", "heavy": "B1 heavy with K440R", "light": "B1 light", "notes": "L235R/S239K/M252Y/S254T/N434Y/Y436V/Q438R/S440E (EU)"}, "B5": {"name": "Fv-4-F1291 (antibody, human IgG1, kappa)", "heavy": "B1 heavy with T256S, H435D, K440Q, E442S", "light": "B1 light"}, "B6": {"name": "Fv-4-F1268 (antibody)", "heavy": "B1 heavy with T256S, H435D, K440R", "light": "B1 light"}, "B7": {"name": "Fv-4-F1269 (antibody)", "heavy": "B1 heavy with T256S, H435D, E442D", "light": "B1 light"}, "B8": {"name": "Fv-4-F1081 (antibody, human IgG1, kappa)", "heavy": "B1 heavy with R237L, K241S, T256S, V438N, K440T, E442S", "light": "B1 light", "notes": "additional N-glycosylation found (++)"}, "B9": {"name": "Fv-4-F1083 (antibody)", "heavy": "B1 heavy with R237L, K241S, T256S, V438Y, K440Q, E442N", "light": "B1 light"}, "B10": {"name": "Fv-4-F1079 (antibody, human IgG1, kappa)", "heavy": "B1 heavy with R237L, K241S, T256S, E384N, N386S, V438Y, K440Q, E442S", "light": "B1 light"}, "B11": {"name": "Fv-4-F1095 (antibody, human IgG1, kappa)", "heavy": "B1 heavy with R237L, K241S, T256S, S385N, G387S, V438Y, K440Q, E442S", "light": "B1 light"}, "B12": {"name": "Fv-4-F1080 (antibody, human IgG1, kappa)", "heavy": "B1 heavy with R237L, K241S, T256S, S426N, V438Y, K440Q, E442S", "light": "B1 light", "notes": "as for B8"}, "B13": {"name": "Fv-4-F11 (antibody, human IgG1, kappa)", "heavy": "not shown", "light": "B1 light", "notes": "M252Y/N434Y (EU)"}, "B14": {"name": "Fv-4-F1096 (antibody, human IgG1, kappa)", "heavy": "B1 heavy with R237L, K241S, T256S, Q388T, V438Y, K440Q, E442S", "light": "B1 light"}, "B15": {"name": "Fv-4-F1082 (antibody, human IgG1, kappa)", "heavy": "B1 heavy with R237L, K241S, T256S, V438Y, K440N, E442S", "light": "B1 light", "notes": "additional N-glycosylation found (+)"}, "B16": {"name": "Fv-4-F1097 (antibody, human IgG1, kappa)", "heavy": "B1 heavy with R237L, K241S, T256S, G387N, P389S, V438Y, K440Q, E442S", "light": "B1 light"}, "B17": {"name": "Fv-4-F1078 (antibody, human IgG1, kappa)", "heavy": "B1 heavy with R237L, K241S, T256S, E382N, E384S, V438Y, K440Q, E442S", "light": "B1 light"}, "B18": {"name": "Fv-4-F1094 (antibody)", "heavy": "B1 heavy with R237L, K241S, T256S, V438Y, K440Q, E442S, S444N", "light": "B1 light"}, "B19": {"name": "Fv-4-F1077 (antibody, human IgG1, kappa)", "heavy": "B1 heavy with R237L, K241S, K250N, T256S, V438Y, K440Q, E442S", "light": "B1 light", "notes": "as for B8"}, "B20": {"name": "Fv-4-F1391 (antibody, human IgG1, kappa)", "heavy": "B1 heavy with R237L, K241S, Y254M, T256S, M430L, Y436S, V438N, K440Q, E442S", "light": "B1 light"}, "B21": {"name": "Fv-4-F1390 (antibody, human IgG1, kappa)", "heavy": "B1 heavy with R237L, K241S, Y254M, T256S, M430L, Y436S, V438H, K440Q, E442S", "light": "B1 light"}, "B22": {"name": "Fv-4-F1388 (antibody, human IgG1, kappa)", "heavy": "B1 heavy with R237L, K241S, Y254M, T256S, M430L, Y436S, V438F, K440Q, E442S", "light": "B1 light"}, "B23": {"name": "Fv-4-F1386 (antibody, human IgG1, kappa)", "heavy": "B1 heavy with R237L, K241S, Y254M, T256S, S428Y, M430L, Y436S, V438Y, K440Q, E442S", "light": "B1 light"}, "B24": {"name": "Fv-4-F1380 (antibody, human IgG1, kappa)", "heavy": "B1 heavy with R237L, K241S, Y254M, T256S, S428D, M430L, Y436S, V438Y, K440Q, E442S", "light": "B1 light"}, "B25": {"name": "Fv-4-F1384 (antibody, human IgG1, kappa)", "heavy": "B1 heavy with R237L, K241S, Y254M, T256S, S428A, M430L, Y436S, V438Y, K440Q, E442S", "light": "B1 light"}, "B26": {"name": "Fv-4-F1389 (antibody, human IgG1, kappa)", "heavy": "B1 heavy with R237L, K241S, Y254M, T256S, M430L, Y436S, V438T, K440Q, E442S", "light": "B1 light", "notes": "M428L/N434S/Y436T (EU)"}, "B27": {"name": "Fv-4-F1392 (antibody, human IgG1, kappa)", "heavy": "B1 heavy with R237L, K241S, Y254M, T256S, M430L, Y436S, V438K, K440Q, E442S", "light": "B1 light"}, "B28": {"name": "Fv-4-F1385 (antibody, human IgG1, kappa)", "heavy": "B1 heavy with R237L, K241S, Y254M, T256S, S428Q, M430L, Y436S, V438Y, K440Q, E442S", "light": "B1 light"}, "B29": {"name": "Fv-4-F1381 (antibody, human IgG1, kappa)", "heavy": "B1 heavy with R237L, K241S, Y254M, T256S, S428E, M430L, Y436S, V438Y, K440Q, E442S", "light": "B1 light"}, "B30": {"name": "Fv-4-F1382 (antibody, human IgG1, kappa)", "heavy": "B1 heavy with R237L, K241S, Y254M, T256S, S428K, M430L, Y436S, V438Y, K440Q, E442S", "light": "B1 light"}, "B31": {"name": "Fv-4-F1383 (antibody, human IgG1, kappa)", "heavy": "B1 heavy with R237L, K241S, Y254M, T256S, S428R, M430L, Y436S, V438Y, K440Q, E442S", "light": "B1 light"}, "B32": {"name": "F1751 (antibody)", "heavy": "B1 heavy with Y254M, T256S, V438T, E442D", "light": "B1 light"}, "B33": {"name": "F1752 (antibody)", "heavy": "B1 heavy with Y254M, T256S, H435D, V438T, K440R", "light": "B1 light"}, "B34": {"name": "F1761 (antibody)", "heavy": "B1 heavy with R237L, K241S, Y254M, T256S, H435D, V438T, K440R, E442D", "light": "B1 light"}, "B35": {"name": "F1758 (antibody)", "heavy": "B1 heavy with R237L, K241S, Y254M, T256S, V438T", "light": "B1 light"}, "B36": {"name": "F1763 (antibody)", "heavy": "B1 heavy with R237L, K241S, Y254M, T256S, H435D, V438T, E442D", "light": "B1 light"}, "B37": {"name": "F1757 (antibody)", "heavy": "B1 heavy with R237L, K241S, Y254M, T256S, V438T, K440R, E442D", "light": "B1 light"}, "B38": {"name": "F1756 (antibody)", "heavy": "B1 heavy with R237L, K241S, Y254M, T256S, V438T, K440R", "light": "B1 light"}, "B39": {"name": "F1753 (antibody)", "heavy": "B1 heavy with Y254M, T256S, H435D, V438T, K440R, E442D", "light": "B1 light"}, "B40": {"name": "F1754 (antibody)", "heavy": "B1 heavy with Y254M, T256S, H435D, V438T", "light": "B1 light"}, "B41": {"name": "F1759 (antibody)", "heavy": "B1 heavy with R237L, K241S, Y254M, T256S, V438T, E442D", "light": "B1 light"}},
  "note": "Where a chain is given by its changes, count along the chain named. Numbers in names are those of the source.",
  "data": [
    {"target": "T1, soluble human FcRn (human, UniProt P55899 24-297; P61769 21-119)", "T1 construct": "Heterodimer of alpha chain and beta2-microglobulin; also called hFcRn", "T1 sequence (P55899 24-297 limits assumed, chain 1 of 2)": "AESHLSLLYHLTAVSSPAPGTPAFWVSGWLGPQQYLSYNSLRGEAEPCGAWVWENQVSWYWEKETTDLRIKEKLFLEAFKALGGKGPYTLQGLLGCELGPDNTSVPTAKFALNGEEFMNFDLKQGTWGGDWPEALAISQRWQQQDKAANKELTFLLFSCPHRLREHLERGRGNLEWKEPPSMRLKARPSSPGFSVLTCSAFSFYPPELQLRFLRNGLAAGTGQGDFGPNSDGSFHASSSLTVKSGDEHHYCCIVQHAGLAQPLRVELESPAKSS", "T1 sequence (P61769 21-119 limits assumed, chain 2 of 2)": "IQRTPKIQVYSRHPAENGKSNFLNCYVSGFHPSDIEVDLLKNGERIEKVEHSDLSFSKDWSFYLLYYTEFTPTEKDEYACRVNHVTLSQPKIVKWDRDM", "test": "SPR (Biacore), pH 7.0", "units": {"Kd": "nM"}, "values": [
      {"binder": "B1", "Kd": 100},
      {"binder": "B2", "Kd": 150},
      {"binder": "B3", "Kd": 82},
      {"binder": "B4", "Kd": 130},
      {"binder": "B5", "Kd": 150},
      {"binder": "B6", "Kd": 200},
      {"binder": "B7", "Kd": 170}
    ]},
    {"target": "T1, soluble human FcRn", "test": "SPR (Biacore), pH 7.0", "remark": "another data set of the same source", "units": {"Kd": "nM"}, "values": [
      {"binder": "B8", "Kd": 620},
      {"binder": "B9", "Kd": 350},
      {"binder": "B10", "Kd": 340},
      {"binder": "B11", "Kd": 290},
      {"binder": "B12", "Kd": 320},
      {"binder": "B13", "Kd": 330},
      {"binder": "B14", "Kd": 270},
      {"binder": "B15", "Kd": 280},
      {"binder": "B16", "Kd": 280},
      {"binder": "B17", "Kd": 470},
      {"binder": "B18", "Kd": 260},
      {"binder": "B19", "Kd": 2000}
    ]},
    {"target": "T1, soluble human FcRn", "test": "SPR (Biacore), pH 6.0", "units": {"Kd": "nM"}, "values": [
      {"binder": "B20", "Kd": 420},
      {"binder": "B21", "Kd": 400},
      {"binder": "B22", "Kd": 80},
      {"binder": "B23", "Kd": 160},
      {"binder": "B24", "Kd": 73},
      {"binder": "B25", "Kd": 86},
      {"binder": "B26", "Kd": 68},
      {"binder": "B27", "Kd": 270},
      {"binder": "B28", "Kd": 77},
      {"binder": "B29", "Kd": 86},
      {"binder": "B30", "Kd": 130},
      {"binder": "B31", "Kd": 160}
    ]},
    {"target": "T1, soluble human FcRn", "test": "SPR (Biacore), pH 6.0", "remark": "another data set of the same source", "units": {"Kd": "nM"}, "values": [
      {"binder": "B32", "Kd": 69},
      {"binder": "B33", "Kd": 150},
      {"binder": "B34", "Kd": 130},
      {"binder": "B35", "Kd": 70},
      {"binder": "B36", "Kd": 110},
      {"binder": "B37", "Kd": 72},
      {"binder": "B38", "Kd": 80},
      {"binder": "B39", "Kd": 130},
      {"binder": "B40", "Kd": 120},
      {"binder": "B41", "Kd": 63}
    ]}
  ]
}
